Data: patent US20140322162A1

Legend:
[1] = biological target: H-ferritin binding sites (receptor) on bovine retinal endothelial cell (BREC) homogenate (bovine); test: saturation binding of 125I-rH-ferritin to BREC homogenate, global non-linear one-site fit
[2] = biological target: H-ferritin binding sites (receptor) on rat brain microvessels (rat); test: saturation binding of 125I-rH-ferritin to rat brain microvessels, global non-linear one-site fit

recombinant human H-ferritin (from UniProt P02794 1-183) (ligand)
Bmax (fmol/mg protein) [1]: 466
Kd [1]: 2.7 nM
Bmax (fmol/mg protein) [2]: 573
Kd [2]: 7.9 nM
